Data published in patent US6403765B1, “Truncated Apaf-1 and methods of use thereof” (Thomas Jefferson University, priority 1998, dated 2002).

Legend:
MCF-7 cells = assay: Inhibition of apoptosis in transfected MCF-7 cells; format: cell-based; details: apoptosis induced by UV, Fas agonist antibody, TRAIL, or overexpression of DR4 and DR5, FIG. 17
Description: To express the caspases or truncated Apaf-1 in mammalian cells and assay their apoptotic activity, they were amplified with the T7-tag primer and reverse primers using the pET28a constructs as templates, and subcloned into the mammalian double expression vector pRSC-LacZ (MacFarlane et al., J. Biol. Chem., 272:25417-25420, 1997; Tsang et al., Bio/Technology, 22:68, 1997) or as previously described (Li et al., Cell 91:479-489, 1997; Srinivasula et al., J. Biol. Chem., 272:18452-18545, 1997). This vector allows the expression of lacZ under the Rous Sarcoma virus promoter, and the test cDNA under the CMV promoter. To assay for apoptosis, MCF-7 or 293 cells were transfected, using the method commercially available as the Lipofect Amine method (Life Technologies, Inc.), with the pRSC-LacZ constructs in the presence or absence of different apoptosis-inhibitors. 30 h after transfection cells were stained with β-galactosidase and examined for morphological signs of apoptosis. The percentage of round blue apoptotic cells (mean±SD) were determined by phase contrast microscopy and then represented as a function of total blue cells under each condition (n≧3).

procaspase-9 = molecular target: T1, procaspase-9 (Homo sapiens, UniProt P55211); assay: In vitro caspase 9 activation assay: recombinant Apaf-1 variants incubated with in vitro translated procaspase-9; format: biochemical; details: bacterial lysates with truncated Apaf-1 variants, FIG. 2B
T1 construct: schematic representation of full length procaspase-9; made in house; host or cells: coupled in vitro transcription/translation in rabbit reticulocyte lysate (TNT Kit, Promega)
T1 sequence (P55211 1-416): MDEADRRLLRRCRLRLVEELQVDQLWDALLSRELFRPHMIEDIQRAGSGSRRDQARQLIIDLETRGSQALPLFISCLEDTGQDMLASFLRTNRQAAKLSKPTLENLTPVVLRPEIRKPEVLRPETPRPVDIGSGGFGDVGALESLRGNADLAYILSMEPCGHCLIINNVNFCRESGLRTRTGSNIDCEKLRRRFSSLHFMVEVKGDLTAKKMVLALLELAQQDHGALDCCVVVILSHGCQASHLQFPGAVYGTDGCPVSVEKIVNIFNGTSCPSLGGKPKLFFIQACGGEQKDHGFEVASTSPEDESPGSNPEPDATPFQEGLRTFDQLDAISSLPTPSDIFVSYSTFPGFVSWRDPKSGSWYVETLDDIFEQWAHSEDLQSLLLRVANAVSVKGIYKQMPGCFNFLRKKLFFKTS
Experimental: SDS sample buffer was then added to each sample, boiled and subjected to SDS-PAGE analysis followed by autoradiography. In FIG. 2A procaspase-9 was in vitro translated in the presence of ^35S-methionine. Following translation procaspase-9 was desalted by gel filtration through a biospin column (BioRad) to remove unincorporated methionine and free nucleotides. Desalted procaspase-9 was then incubated with 200 ng Ni^2+-affinity purified bacterially expressed recombinant Apaf-530 (WT or K149R mutant) in the presence or absence of cytochrome c or dATP or both for 2 h at 30° C. A mock sample containing Ni^2+-affinity purified material from bacteria transformed with an empty vector was used as a negative control. Following incubation the products were analyzed by SDS-PAGE and autoradiography. In FIG. 2B^35S-labeled procaspase-9 (as described above) was incubated with bacterial lysates containing truncated Apaf-1 variants as indicated and then analyzed as above (2B upper panel). The bacterial lysates were analyzed by SDS-PAGE and immunoblotted with an Apaf-1 antibody which recognizes the N-terminus of Apaf-1 (lanes 2-6) and an anti T7-tag antibody (lanes 7-8) to confirm expression and equivalent concentration of the different Apaf-1 variants (2B lowerpanel). The molecular mass markers are indicated to the right of the lower panel.
^35S-labeled caspases were obtained by in vitro translation in the presence of ^35S-methionine using a coupled transcription/translation system in rabbit reticulocyte lysate using TNT Kit (Promega) according to the manufacturer's recommendations.
To determine the role of the WD-40 repeat in the mechanism of Apaf-1-induced processing of procaspase-9, truncated Apaf-1 (Apaf-530) lacking its WD-40 repeats (FIG. 1) was expressed and purified. To reconstitute a recombinant caspase-9 activation system, the truncated Apaf-530 was incubated with in vitro translated recombinant procaspase-9 in the presence or absence of cytochrome c and dATP. […] It was previously shown that mutation of CED-4 K165R which is required for nucleotide binding destroys its activity (Chinnaiyan et al., Nature 388:728-729, 1997; Jarnes et al., Curr. Biol. 7:246-252, 1997; Seshagiri and Miller, Curr. Biol. 7:455-460, 1997). […] Therefore, either binding of Apaf-1 to cytochrome c and dATP or deletion of the repeats could induce a conformational change enabling Apaf-1 to bind and process procaspase-9.
In FIG. 3, ^35S-labeled WT or mutant D330A, D315A or C287A mutants of procaspase-9 or prodomainless procaspase-9 (Δpro, residues 134-416) were incubated with buffer (lanes 1, 4, 7, 10, 13), purified Apaf-530 (lanes 2, 5, 8, 11, 14) or mock purified material (lanes, 3, 6, 9, 12, 15) and then analyzed by SDS-PAGE and autoradiography.

T7-tagged Apaf-530 = molecular target: T2, T7-tagged Apaf-530 (Homo sapiens, UniProt O14727); assay: Co-immunoprecipitation of Flag-tagged Apaf-1 variants with T7-tagged Apaf-530 in 293 cells; format: binding; details: anti-Flag immunoprecipitation, anti-T7 blot, 36 hours, FIG. 11
T2 construct: expressed in transfected cells; host or cells: 293 cells
T2 sequence (O14727 1-530 isoform O14727-3): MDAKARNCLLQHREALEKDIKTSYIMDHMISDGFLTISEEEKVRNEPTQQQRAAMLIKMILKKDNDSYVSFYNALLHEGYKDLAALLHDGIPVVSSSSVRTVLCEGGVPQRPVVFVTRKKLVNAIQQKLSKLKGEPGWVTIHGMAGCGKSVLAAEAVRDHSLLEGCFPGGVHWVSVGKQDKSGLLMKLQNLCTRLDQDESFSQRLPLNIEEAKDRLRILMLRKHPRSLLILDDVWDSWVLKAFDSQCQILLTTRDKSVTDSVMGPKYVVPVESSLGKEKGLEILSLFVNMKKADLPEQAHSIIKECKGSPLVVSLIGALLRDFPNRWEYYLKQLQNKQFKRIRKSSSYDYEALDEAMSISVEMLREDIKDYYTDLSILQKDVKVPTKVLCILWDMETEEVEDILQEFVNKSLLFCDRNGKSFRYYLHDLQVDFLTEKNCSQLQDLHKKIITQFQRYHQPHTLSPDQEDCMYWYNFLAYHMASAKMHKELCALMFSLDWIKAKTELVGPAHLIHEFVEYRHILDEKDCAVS
Experimental: The ability of APAF-530 to oligomerize pro-caspase-9 was tested. Co-transfection experiments in 293 cells were performed with T7-tagged Apaf-530 and different Flag-tagged Apaf-1 variants, and cell lysates were prepared and immunoprecipitated with an anti-Flag antibody. The immunoprecipitates were analyzed by Western blotting with an anti-T7 antibody.
In FIG. 11, 293 cells were co-transfected with constructs encoding T7-tagged Apaf-530 and an empty vector (lane 1) or constructs encoding Flag-tagged Apaf-1 (lane 2), Flag-tagged Apaf-530 (lane 3), Flag-tagged Apaf-530ΔCARD (lane 4) or Flag-tagged Apaf-97 (lane 5). After 36 hours, extracts were prepared and immunoprecipitated with a monoclonal antibody to the Flag epitope. The immunoprecipitates (upper panel) were analyzed by SDS-PAGE and immunoblotted with a horseradish peroxides-conjugated T7 antibody. The corresponding cellular extracts were also analyzed by SDS-PAGE and immunoblotted with a horseradish peroxides-conjugated T7 antibody (middle panel) or an anti-Flag antibody (lower panel).

T7-tagged Bcl-xL = molecular target: T3, T7-tagged Bcl-xL (Homo sapiens, UniProt Q07817); assay: Co-immunoprecipitation of Flag-tagged Apaf-1 variants or procaspase-9 with T7-tagged Bcl-xL in 293 cells; format: binding; details: anti-Flag immunoprecipitation, anti-T7 blot, 36 hours, FIG. 16
T3 construct: expressed in transfected cells; host or cells: 293 cells
T3 sequence (Q07817 whole entry): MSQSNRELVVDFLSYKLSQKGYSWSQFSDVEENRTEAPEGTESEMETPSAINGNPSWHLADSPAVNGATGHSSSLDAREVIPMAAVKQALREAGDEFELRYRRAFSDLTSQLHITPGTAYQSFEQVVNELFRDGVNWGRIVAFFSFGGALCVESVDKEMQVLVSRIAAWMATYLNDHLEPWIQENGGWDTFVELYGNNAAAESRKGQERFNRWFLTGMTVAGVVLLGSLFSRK
Experimental: In vivo interaction experiments between Apaf-1 variants and Bcl-xL were performed. To analyze the ability of Apaf-1 to interact with Bcl-xL, 293 cells were co-transfected with constructs encoding T7-tagged Bcl-xL and constructs encoding Flag-tagged Apaf-97 (FIG. 16, lane 1), Apaf-1 (FIG. 16, lane 2), Apaf-530 (FIG. 16, lane 3) Apaf-530ΔCARD (FIG. 16, lane 4), or procaspase-9 C287A (FIG. 16, lane 5). After 36 hours, extracts were prepared and immunoprecipitated with a monoclonal antibody to the Flag epitope. The immunoprecipitates (FIG. 16, upper panel) were analyzed by SDS-PAGE and immunoblotted with a horseradish peroxidase-conjugated T7 antibody. The corresponding cellular extracts were also analyzed by SDS-PAGE and immunoblotted with a horseradish peroxides-conjugated T7 antibody (FIG. 16, middle panel) or an anti-Flag antibody (FIG. 16, lower panel).

## Bcl-xL: Bcl-xL expressed from a transfected construct as apoptosis inhibitor comparator [reference compound]
MCF-7 cells
  inhibition of apoptosis: inhibition

B1: Apaf-97: truncated Apaf-1, residues 1-97, entire CED-4 homology region deleted (protein)
chain: MDAKARNCLLQHREALEKDIKTSYIMDHMISDGFLTISEEEKVRNEPTQQQRAAMLIKMILKKDNDSYVSFYNALLHEGYKDLAALLHDGIPVVSSS
modifications: left off: small tags and cut ends
notes: truncated Apaf-1, residues 1-97, entire CED-4 homology region deleted
procaspase-9
  activity of the Apaf-1 variant in promoting activation of procaspase-9: inactivated
T7-tagged Apaf-530
  co-immunoprecipitation with T7-Apaf-530: not
T7-tagged Bcl-xL
  co-immunoprecipitation with Bcl-xL: not

B2: Apaf-530ΔCARD: truncated Apaf-1, residues 98-530, CARD domain deleted (protein)
chain: SVRTVLCEGGVPQRPVVFVTRKKLVNAIQQKLSKLKGEPGWVTIHGMAGCGKSVLAAEAVRDHSLLEGCFPGGVHWVSVGKQDKSGLLMKLQNLCTRLDQDESFSQRLPLNIEEAKDRLRILMLRKHPRSLLILDDVWDSWVLKAFDSQCQILLTTRDKSVTDSVMGPKYVVPVESSLGKEKGLEILSLFVNMKKADLPEQAHSIIKECKGSPLVVSLIGALLRDFPNRWEYYLKQLQNKQFKRIRKSSSYDYEALDEAMSISVEMLREDIKDYYTDLSILQKDVKVPTKVLCILWDMETEEVEDILQEFVNKSLLFCDRNGKSFRYYLHDLQVDFLTEKNCSQLQDLHKKIITQFQRYHQPHTLSPDQEDCMYWYNFLAYHMASAKMHKELCALMFSLDWIKAKTELVGPAHLIHEFVEYRHILDEKDCAVS
modifications: left off: small tags and cut ends
notes: truncated Apaf-1, residues 98-530, CARD domain deleted
procaspase-9
  activity of the Apaf-1 variant in promoting activation of procaspase-9: inactivated
T7-tagged Apaf-530
  co-immunoprecipitation with T7-Apaf-530: co-immunoprecipitated
T7-tagged Bcl-xL
  co-immunoprecipitation with Bcl-xL: capable of immunoprecipitating Bcl-xL

B3: Apaf-1: full length Apaf-1, 1194 amino acids (protein)
chain: MDAKARNCLLQHREALEKDIKTSYIMDHMISDGFLTISEEEKVRNEPTQQQRAAMLIKMILKKDNDSYVSFYNALLHEGYKDLAALLHDGIPVVSSSSVRTVLCEGGVPQRPVVFVTRKKLVNAIQQKLSKLKGEPGWVTIHGMAGCGKSVLAAEAVRDHSLLEGCFPGGVHWVSVGKQDKSGLLMKLQNLCTRLDQDESFSQRLPLNIEEAKDRLRILMLRKHPRSLLILDDVWDSWVLKAFDSQCQILLTTRDKSVTDSVMGPKYVVPVESSLGKEKGLEILSLFVNMKKADLPEQAHSIIKECKGSPLVVSLIGALLRDFPNRWEYYLKQLQNKQFKRIRKSSSYDYEALDEAMSISVEMLREDIKDYYTDLSILQKDVKVPTKVLCILWDMETEEVEDILQEFVNKSLLFCDRNGKSFRYYLHDLQVDFLTEKNCSQLQDLHKKIITQFQRYHQPHTLSPDQEDCMYWYNFLAYHMASAKMHKELCALMFSLDWIKAKTELVGPAHLIHEFVEYRHILDEKDCAVSENFQEFLSLNGHLLGRQPFPNIVQLGLCEPETSEVYQQAKLQAKQEVDNGMLYLEWINKKNITNLSRLVVRPHTDAVYHACFSEDGQRIASCGADKTLQVFKAETGEKLLEIKAHEDEVLCCAFSTDDRFIATCSVDKKVKIWNSMTGELVHTYDEHSEQVNCCHFTNSSHHLLLATGSSDCFLKLWDLNQKECRNTMFGHTNSVNHCRFSPDDKLLASCSADGTLKLWDATSANERKSINVKQFFLNLEDPQEDMEVIVKCCSWSADGARIMVAAKNKIFLWNTDSRSKVADCRGHLSWVHGVMFSPDGSSFLTSSDDQTIRLWETKKVCKNSAVMLKQEVDVVFQENEVMVLAVDHIRRLQLINGRTGQIDYLTEAQVSCCCLSPHLQYIAFGDENGAIEILELVNNRIFQSRFQHKKTVWHIQFTADEKTLISSSDDAEIQVWNWQLDKCIFLRGHQETVKDFRLLKNSRLLSWSFDGTVKVWNIITGNKEKDFVCHQGTVLSCDISHDATKFSSTSADKTAKIWSFDLLLPLHELRGHNGCVRCSAFSVDSTLLATGDDNGEIRIWNVSNGELLHLCAPLSEEGAATHGGWVTDLCFSPDGKMLISAGGYIKWWNVVTGESSQTFYTNGTNLKKIHVSPDFKTYVTVDNLGILYILQTLE
modifications: left off: small tags and cut ends
notes: full length Apaf-1, 1194 amino acids
T7-tagged Apaf-530
  co-immunoprecipitation with T7-Apaf-530: co-immunoprecipitated
T7-tagged Bcl-xL
  co-immunoprecipitation with Bcl-xL: capable of immunoprecipitating Bcl-xL
